This note sets out measurements from doi:10.1101/2025.08.11.669711.

The assay has as its target UCH37•RPN13 (UniProt Q16186). The experiment in a line: steady-state enzyme inhibition kinetics; cleavage of K6/K48 tri-Ub by UCH37•RPN13 (0.5 μM) with varied Nb-ncS1; 50 mM HEPES pH 7.5, 50 mM NaCl, 1 mM DTT; 37 °C; competitive inhibition fit.

One may read the Ki as a measure of affinity in units of concentration, obtained from inhibition or displacement. Low readings indicate a stronger hold on the target, high ones a looser hold on the target.

Sequence of UCH37•RPN13 (Q16186 whole entry, looked up): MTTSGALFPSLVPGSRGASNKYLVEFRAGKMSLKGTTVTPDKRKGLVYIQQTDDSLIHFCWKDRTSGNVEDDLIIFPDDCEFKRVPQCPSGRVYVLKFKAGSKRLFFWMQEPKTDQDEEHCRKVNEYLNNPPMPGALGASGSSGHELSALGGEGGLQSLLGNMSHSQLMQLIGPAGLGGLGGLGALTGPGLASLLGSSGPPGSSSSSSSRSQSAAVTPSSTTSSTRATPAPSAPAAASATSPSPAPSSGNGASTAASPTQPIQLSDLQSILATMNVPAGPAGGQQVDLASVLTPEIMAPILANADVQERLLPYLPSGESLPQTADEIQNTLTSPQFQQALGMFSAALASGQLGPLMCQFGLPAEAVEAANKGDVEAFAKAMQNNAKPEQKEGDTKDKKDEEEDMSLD

B1: Nb-ncS1 (His-tagged) (VHH)
VHH: RVQLQESGGGLVQAGGSLRLSCAASGYIFRSYRMGWYRQAPGKERELVAAIGLGGNTYYADSVKGRFTISRDNAKNTVYQQMNSLKPEDTAVYYCAALYGKPPAFSPFPYWGQGTQVTVSS
For B1, the inhibition constant Ki turned out to be 120 nM.
